Where a chain is given by its changes, count along the chain named.
T1: cynomolgus monkey E-selectin extracellular domain with 10 His purification tail (cynomolgus monkey, UniProt P16581 22-554 (human entry))
T1 construct: also called cynomolgus E-selectin; truncated cynomolgus monkey E-selectin
T1 chain: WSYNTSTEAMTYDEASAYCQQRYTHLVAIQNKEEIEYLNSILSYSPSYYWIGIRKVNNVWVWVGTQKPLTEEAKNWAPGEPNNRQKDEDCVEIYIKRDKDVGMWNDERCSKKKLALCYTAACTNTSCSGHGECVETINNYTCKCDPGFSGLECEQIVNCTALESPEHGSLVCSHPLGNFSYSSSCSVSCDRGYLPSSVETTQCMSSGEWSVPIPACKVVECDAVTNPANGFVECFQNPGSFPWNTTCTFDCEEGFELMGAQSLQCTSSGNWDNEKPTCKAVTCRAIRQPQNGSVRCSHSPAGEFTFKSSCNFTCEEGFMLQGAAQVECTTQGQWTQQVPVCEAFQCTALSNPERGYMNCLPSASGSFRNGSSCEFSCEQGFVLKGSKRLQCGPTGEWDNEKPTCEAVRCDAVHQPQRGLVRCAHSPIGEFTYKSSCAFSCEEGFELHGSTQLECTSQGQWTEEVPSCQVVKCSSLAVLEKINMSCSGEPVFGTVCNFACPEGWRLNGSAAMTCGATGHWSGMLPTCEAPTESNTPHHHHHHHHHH

T2: human E-selectin, cell-surface expressed (human, UniProt P16581 22-610)
T2 sequence: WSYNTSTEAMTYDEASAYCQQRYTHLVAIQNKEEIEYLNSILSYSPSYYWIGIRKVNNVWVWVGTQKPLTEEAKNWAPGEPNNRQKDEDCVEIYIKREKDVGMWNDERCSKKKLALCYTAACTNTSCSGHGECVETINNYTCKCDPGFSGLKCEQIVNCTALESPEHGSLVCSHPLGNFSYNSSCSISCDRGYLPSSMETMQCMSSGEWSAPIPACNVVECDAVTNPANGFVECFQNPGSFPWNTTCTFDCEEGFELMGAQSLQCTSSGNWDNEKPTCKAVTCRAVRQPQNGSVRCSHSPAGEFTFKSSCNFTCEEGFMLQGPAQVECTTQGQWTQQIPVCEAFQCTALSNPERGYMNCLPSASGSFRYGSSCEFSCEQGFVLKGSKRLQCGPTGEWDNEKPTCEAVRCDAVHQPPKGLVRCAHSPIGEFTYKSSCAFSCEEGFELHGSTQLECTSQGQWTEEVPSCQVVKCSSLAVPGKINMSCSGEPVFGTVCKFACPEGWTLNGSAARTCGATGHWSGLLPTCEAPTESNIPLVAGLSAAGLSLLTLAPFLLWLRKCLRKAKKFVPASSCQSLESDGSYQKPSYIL

B1: anti-E-selectin antibody 0159 chimera (antibody, human IgG1, kappa, V domains shown)
VH: EVQLQQSGAELGKPGTSVKLSCKVSGYNIRSTYMHWVSQRPGKGLEWIGRIDPANGNTIYAEKFKRKATLTADTSSNTAYMQLSQLKSDDRAIYFCAMEVRVSFEYWGQGVMVTVSS
VL: DIQMTQSPSFLSASVGDRVTINCKASQNINKYLDWYQQKLGEGPKLLIYYTNNLHTGIPSRFSGSGSGTDFTLTISSLQPEDVATYFCLQHDSGYTFGAGTKLELKR
notes: rat VH/VL on effector-null human IgG1 and human kappa
B2: anti-E-selectin antibody 0170 chimera (antibody, human IgG1, kappa, V domains shown)
VH: EVQLQQSGAELGKPGTSVKLSCKVSGYSIRSTYMHWVNQRPGKGLEWVGRIDPANGNTIYAERFKNKATLTADTSSNTAYMQLSQLKSDDTAIYFCAVEILGIFDYWGQGVMVTVSS
VL: B1 VL with N30D, G43A, I48M, Y50N, N53S, D92N
notes: as for B1
B3: anti-E-selectin antibody 0180 chimera (antibody, human IgG1, kappa, V domains shown)
VH: EVQLQQSGAELGKPGTSVKLSCKVSGYKIRSSYMHWVNQRPGKGLEWIGRIDPANGNTIYGDKFKSKATLTSDTSSNTAYIQLSQLKSDDTAIYFCAIDIGTTFDYWGQGVMVTVSS
VL: DIQMTQSPSFLSASVGDRVTINCKASQHINRYLNWYQQKLGEAPKLLIYDANNLQTGIPSRFSGSGSGTDFTLTISSLQPEDVATYFCLQHNSWPNTFGAGTKLELKR
notes: as for B1
B4: anti-E-selectin antibody 0164 chimera (antibody, human IgG1, kappa, V domains shown)
VH: EVQLQQSGAEFGKPGTSVKLSCKVSGYNIRSSYMHWVNQRPGKGLEWIGRIDPANGNTIYAEKFKIKAILTADSSSNTAYMQLSQLKSDDTAIYFCAMDLYSTSEYWGQGVMVTVSS
VL: B3 VL with A25T, H28N, D50N, N53S, G64A, S76N, H91D, N96L, A100S, L106I
notes: as for B1
B5: anti-E-selectin antibody 0039 chimera (antibody, human IgG1, kappa, V domains shown)
VH: QVQLKETGPGLVQPTQTLSITCTVSGFSLTGYYMQWVRQTPGKGLEWMGFIRSSGSTEYNSEFKSRLSISRDTSKNQVFLKMNSLKTEDTGVYYCARCPYKYSSFVYVGVMDAWGQGAPVTVSS
VL: EIVMTQSPTSMSTSIGERVTLNCKASQTVGINVDWYQQTPGQPPKLLIYGASNRHTGVPDRFTGSGFGRDFTLTISNVEAEDLAVYCCLQYGSIPHTFGPGTKLELKR
notes: as for B1
B6: anti-E-selectin antibody 0158 chimera (antibody, human IgG1, kappa, V domains shown)
VH: QVQLKESGPGLVQPSETLSLTCTVSGFSISTYNVHWLRQPPGKGLEWMGMMWSGGSPDYNSALKSRLSISRDTSKNQVFLKMNSLQSEDTTTYYCARWGGGFDYWGQGVMVTVSS
VL: DIVLTQSPTTLSVTPGETVSLSCRASHSIGTNLHWYQQKTNESPRLLIKFTSQSISGIPSRFSASGSGTDFTLNINNVEFDDVSSYFCQQTQSWPLTFGSGTKLEIKR
notes: as for B1

Target: T1, cynomolgus monkey E-selectin …
Assay: AlphaLISA competition vs sialyl Lewis A-PAA-biotin
Description: The neutralization ability of anti-E-selectin antibodies was measured in an AlphaLISA homogenous competition assay. […] This was incubated at room temperature for 15 minutes, followed by addition of 1.4 μL of human, mouse or cynomolgus monkey E-selectin added to a final concentration of 7 nM. This was again incubated at room temperature for 15 minutes. To this, 1.4 μL AlphaLISA beads was added (Ni-donor/SA-acceptor) for a final assay concentration of 10 μg/mL. This was incubated in the dark at room temperate for at least 10 hours. The plates were then read using the AlphaLISA protocol (Envision).

| EC50 [nM] | Binder |
| --- | --- |
| < 1 | B1 |
| < 1 | B2 |
| < 1 | B3 |
| < 1 | B4 |
| > 63 | B5 |

The binders below were run against T2, human E-selectin, cell-surface expressed (assay: cell-based or functional assay).

| static neutralization, HL-60 Cell adhesion CHO-Human E-selectin cells IC50 (nM) | Binder |
| --- | --- |
| > 50 % inhibition at 49.4 nM | B1 |
| > 50 % inhibition at 444 nM | B2 |
| > 50 % inhibition at 444 nM | B3 |
| > 50 % inhibition at 16.5 nM | B4 |
| > 50 % inhibition at 16.5 nM | B6 |

Target: T1, cynomolgus monkey E-selectin …
Assay: SPR, antibody captured, E-selectin analyte
Description: To characterize binding of antibodies to human, cynomolgus monkey, and mouse E-selectin, an antibody was diluted to 0.5 μg/mL in HBS-EP+ and captured by the anti-human IgG immobilized on flow cells 2, 3 and 4 for 30 seconds to 1 minute at a flow rate of 10 μL/minute to achieve a capture level of 70 to 300 RU. Flow cell 1 was used as a reference surface. […] HBS-EP+ buffer cycles collected for each captured antibody were used for double-referencing (Myszka D G. J. Mol. Recognition 1999; 12(5):279-84). At the end of each cycle, the entire anti-IgG surface was regenerated by a 30 second pulse of 3 M MgCl₂ and a 30 second pulse of ionic buffer (1.83 M MgCl₂, 0.92 M Urea, 1.83 M Guanidine HCl, pH 7.4) (Andersson K. Analy. Chem. 1999; 71(13): 2475-81). Kinetic assays were conducted at 25° C. at a collection rate of 10 Hertz (Hz) on a BIAcore™ T200 instrument (GE Healthcare). Rate constants and affinities were determined by fitting the data to a 1:1 binding model in BIAcore™ T200 Evaluation software version 3.0 (GE Healthcare).

| Kd [nM] | koff [s⁻¹] | kon [M⁻¹ s⁻¹] | t½ [s] | Binder |
| --- | --- | --- | --- | --- |
| 244 | 0.0374 | 154000 | 18.5 | B1 |
| 492 | 0.0564 | 115000 | 12.3 | B2 |
| 3140 | 0.749 | 245000 | 0.93 | B3 |
| 45.4 | 0.012 | 265000 | 57.8 | B4 |
| 45.8 | 0.00377 | 82400 | 184 | B5 |

Source: patent publication US20240076386A1 (Pfizer, published 2024)
